These results are taken from article PMC2132731 (The Journal of Cell Biology, 1998).

Values joined by “and” are separate entries in the source; they are usually repeats but may differ in a detail not shown here. Equal values may be shown once.

For test [1], the target named is GST-yAP180A C5 (S. cerevisiae). Put plainly: pull-down.
For test [2], the target named is T1, Pan1p (S. cerevisiae (endogenous in yeast cells)), P32521.
T1 chain: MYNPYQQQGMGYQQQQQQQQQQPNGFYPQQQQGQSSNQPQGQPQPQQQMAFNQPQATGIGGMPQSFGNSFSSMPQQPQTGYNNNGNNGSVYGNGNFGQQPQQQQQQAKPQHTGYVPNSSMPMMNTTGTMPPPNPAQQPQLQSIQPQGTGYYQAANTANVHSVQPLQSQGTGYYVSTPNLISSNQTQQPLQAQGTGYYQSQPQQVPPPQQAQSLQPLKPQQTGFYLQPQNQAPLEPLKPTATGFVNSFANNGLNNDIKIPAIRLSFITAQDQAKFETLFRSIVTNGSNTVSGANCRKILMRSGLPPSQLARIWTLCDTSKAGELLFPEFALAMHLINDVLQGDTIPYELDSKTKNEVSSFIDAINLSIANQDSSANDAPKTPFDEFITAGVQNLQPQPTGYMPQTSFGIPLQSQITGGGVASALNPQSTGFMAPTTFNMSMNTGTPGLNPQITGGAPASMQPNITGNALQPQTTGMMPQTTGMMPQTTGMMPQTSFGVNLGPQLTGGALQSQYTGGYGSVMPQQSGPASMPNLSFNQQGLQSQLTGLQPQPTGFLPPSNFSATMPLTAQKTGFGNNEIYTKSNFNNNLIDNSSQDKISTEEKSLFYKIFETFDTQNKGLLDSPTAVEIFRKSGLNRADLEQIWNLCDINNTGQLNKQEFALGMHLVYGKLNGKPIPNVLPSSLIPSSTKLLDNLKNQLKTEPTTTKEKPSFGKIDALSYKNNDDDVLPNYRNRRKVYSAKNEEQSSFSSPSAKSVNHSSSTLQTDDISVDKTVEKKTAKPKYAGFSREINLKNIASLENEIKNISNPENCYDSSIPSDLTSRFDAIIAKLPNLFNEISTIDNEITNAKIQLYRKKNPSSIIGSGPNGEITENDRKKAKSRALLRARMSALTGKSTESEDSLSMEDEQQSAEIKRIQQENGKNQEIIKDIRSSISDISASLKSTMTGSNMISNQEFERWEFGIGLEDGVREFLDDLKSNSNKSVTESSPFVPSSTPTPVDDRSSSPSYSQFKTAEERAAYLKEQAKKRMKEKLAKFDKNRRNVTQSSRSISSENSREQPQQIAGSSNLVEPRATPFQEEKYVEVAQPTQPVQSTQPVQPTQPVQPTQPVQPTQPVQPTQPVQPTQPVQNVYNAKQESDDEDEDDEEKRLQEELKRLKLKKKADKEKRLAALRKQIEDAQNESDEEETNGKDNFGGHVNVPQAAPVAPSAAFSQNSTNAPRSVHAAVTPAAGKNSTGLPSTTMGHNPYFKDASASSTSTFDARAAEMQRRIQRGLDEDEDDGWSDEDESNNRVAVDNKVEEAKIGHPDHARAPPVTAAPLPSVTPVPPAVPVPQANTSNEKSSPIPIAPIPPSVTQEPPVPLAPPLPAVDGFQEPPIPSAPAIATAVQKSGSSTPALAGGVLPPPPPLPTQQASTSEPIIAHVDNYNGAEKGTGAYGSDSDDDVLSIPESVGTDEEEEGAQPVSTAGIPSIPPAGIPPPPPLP
Put plainly: co-IP. The note with it: remark: other sources report otherwise.

A further test addresses T2, Pan1p EH1–2 (96–713) (S. cerevisiae, UniProt P32521 96-713).
T2 sequence (looked up): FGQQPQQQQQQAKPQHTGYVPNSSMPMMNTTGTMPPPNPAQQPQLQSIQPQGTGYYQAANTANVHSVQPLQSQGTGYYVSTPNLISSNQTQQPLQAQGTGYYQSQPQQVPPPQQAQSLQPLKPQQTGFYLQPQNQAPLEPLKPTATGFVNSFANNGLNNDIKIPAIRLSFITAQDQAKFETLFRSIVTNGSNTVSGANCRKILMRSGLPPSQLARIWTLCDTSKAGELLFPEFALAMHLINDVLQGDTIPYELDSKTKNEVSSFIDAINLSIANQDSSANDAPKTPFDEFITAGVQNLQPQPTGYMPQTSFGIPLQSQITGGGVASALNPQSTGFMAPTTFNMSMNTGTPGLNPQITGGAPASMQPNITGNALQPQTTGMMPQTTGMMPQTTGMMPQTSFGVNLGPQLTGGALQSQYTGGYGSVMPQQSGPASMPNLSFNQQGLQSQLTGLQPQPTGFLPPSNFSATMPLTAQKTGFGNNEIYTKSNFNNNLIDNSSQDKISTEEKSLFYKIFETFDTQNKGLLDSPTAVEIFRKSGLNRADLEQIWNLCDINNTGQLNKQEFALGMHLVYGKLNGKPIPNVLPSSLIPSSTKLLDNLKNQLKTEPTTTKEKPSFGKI
Put plainly: two-hybrid.

Test [3] concerns the target T3, Pan1p EH2 (96–145/403–713) (S. cerevisiae, UniProt P32521 96-145; P32521 403-713).
T3 chain (looked up): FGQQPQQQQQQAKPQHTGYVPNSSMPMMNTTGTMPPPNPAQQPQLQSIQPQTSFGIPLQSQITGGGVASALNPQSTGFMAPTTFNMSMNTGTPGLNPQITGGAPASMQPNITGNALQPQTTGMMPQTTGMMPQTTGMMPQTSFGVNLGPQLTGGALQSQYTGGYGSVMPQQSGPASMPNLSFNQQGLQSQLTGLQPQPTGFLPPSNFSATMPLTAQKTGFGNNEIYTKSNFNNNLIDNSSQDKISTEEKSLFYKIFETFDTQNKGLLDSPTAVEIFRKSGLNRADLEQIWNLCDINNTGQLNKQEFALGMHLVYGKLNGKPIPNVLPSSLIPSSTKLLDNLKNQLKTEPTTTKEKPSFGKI
Put plainly: two-hybrid.

A further test addresses T4, Pan1p EH2 (544–713) (S. cerevisiae, UniProt P32521 544-713).
T4 sequence (looked up): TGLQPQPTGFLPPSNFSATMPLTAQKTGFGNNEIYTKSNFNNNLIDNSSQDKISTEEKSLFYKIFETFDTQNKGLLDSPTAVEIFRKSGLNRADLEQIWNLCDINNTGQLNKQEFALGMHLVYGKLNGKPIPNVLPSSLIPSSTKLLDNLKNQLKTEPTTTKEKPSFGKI
Put plainly: two-hybrid.

The next test addresses T5, Pan1p EH1 (96–403) (S. cerevisiae, UniProt P32521 96-403).
T5 sequence (looked up): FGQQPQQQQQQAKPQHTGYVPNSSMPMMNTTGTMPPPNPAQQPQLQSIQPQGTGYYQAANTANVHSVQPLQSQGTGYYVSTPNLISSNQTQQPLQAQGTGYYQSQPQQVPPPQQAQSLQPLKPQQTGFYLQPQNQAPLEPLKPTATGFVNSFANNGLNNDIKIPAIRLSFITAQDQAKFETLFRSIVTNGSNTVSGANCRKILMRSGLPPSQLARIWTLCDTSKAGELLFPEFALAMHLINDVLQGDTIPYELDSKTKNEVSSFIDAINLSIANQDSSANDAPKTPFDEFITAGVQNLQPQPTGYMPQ
Put plainly: two-hybrid.

Molecule “yeast clathrin (from UniProt P22137 1-1653; P17891 1-233) (complex)” yielded a percent of Chc1p depleted from the unbound fraction in test [1] of 50%.

B1: yAP180A, P38856 1-637 (natural protein)
chain: MTTYFKLVKGATKIKSAPPKQKYLDPILLGTSNEEDFYEIVKGLDSRINDTAWTIVYKSLLVVHLMIREGSKDVALRYYSRNLEFFDIENIRGSNGSASGDMRALDRYDNYLKVRCREFGKIKKDYVRDGYRTLKLNSGNYGSSRNKQHSINIALDHVESLEVQIQALIKNKYTQYDLSNELIIFGFKLLIQDLLALYNALNEGIITLLESFFELSHHNAERTLDLYKTFVDLTEHVVRYLKSGKTAGLKIPVIKHITTKLVRSLEEHLIEDDKTHNTFVPVDSSQGSAGAVVAKSTAQERLEQIREQKRILEAQLKNEQVAISPALTTVTAAQSYNPFGTDSSMHTNIPMAVANQTQQIANNPFVSQTQPQVMNTPTAHTEPANLNVPEYAAVQHTVNFNPVQDAGVSAQQTGYYSINNHLTPTFTGAGFGGYSVSQDTTAASNQQVSHSQTGSNNPFALHNAATIATGNPAHENVLNNPFSRPNFDEQNTNMPLQQQIISNPFQNQTYNQQQFQQQKMPLSSINSVMTTPTSMQGSMNIPQRFDKMEFQAHYTQNHLQQQQQQQQQQQQQQQQQPQQGYYVPATAGANPVTNITGTVQPQNFPFYPQQQPQPEQSQTQQPVLGNQYANNLNLIDM
Take B1: the percent of yAP180A coimmunoprecipitated in test [2] is 3% and 5%.

B2: yAP180A 432–637 (domain or fragment, S. cerevisiae, UniProt P38856 432-637, looked up)
chain: GGYSVSQDTTAASNQQVSHSQTGSNNPFALHNAATIATGNPAHENVLNNPFSRPNFDEQNTNMPLQQQIISNPFQNQTYNQQQFQQQKMPLSSINSVMTTPTSMQGSMNIPQRFDKMEFQAHYTQNHLQQQQQQQQQQQQQQQQQPQQGYYVPATAGANPVTNITGTVQPQNFPFYPQQQPQPEQSQTQQPVLGNQYANNLNLIDM
Turning to B2, the “units β-galactosidase activity” value was 117 ± 75 Units β-galactosidase activity in the test with Pan1p EH1–2 (96–713), 33 ± 4 Units β-galactosidase activity in test [3], 4 ± 1 Units β-galactosidase activity with Pan1p EH2 (544–713) and 6 ± 1 Units β-galactosidase activity in the test with Pan1p EH1 (96–403).

B3: yAP180A 24–637 (domain or fragment, S. cerevisiae, UniProt P38856 24-637, looked up)
chain: LDPILLGTSNEEDFYEIVKGLDSRINDTAWTIVYKSLLVVHLMIREGSKDVALRYYSRNLEFFDIENIRGSNGSASGDMRALDRYDNYLKVRCREFGKIKKDYVRDGYRTLKLNSGNYGSSRNKQHSINIALDHVESLEVQIQALIKNKYTQYDLSNELIIFGFKLLIQDLLALYNALNEGIITLLESFFELSHHNAERTLDLYKTFVDLTEHVVRYLKSGKTAGLKIPVIKHITTKLVRSLEEHLIEDDKTHNTFVPVDSSQGSAGAVVAKSTAQERLEQIREQKRILEAQLKNEQVAISPALTTVTAAQSYNPFGTDSSMHTNIPMAVANQTQQIANNPFVSQTQPQVMNTPTAHTEPANLNVPEYAAVQHTVNFNPVQDAGVSAQQTGYYSINNHLTPTFTGAGFGGYSVSQDTTAASNQQVSHSQTGSNNPFALHNAATIATGNPAHENVLNNPFSRPNFDEQNTNMPLQQQIISNPFQNQTYNQQQFQQQKMPLSSINSVMTTPTSMQGSMNIPQRFDKMEFQAHYTQNHLQQQQQQQQQQQQQQQQQPQQGYYVPATAGANPVTNITGTVQPQNFPFYPQQQPQPEQSQTQQPVLGNQYANNLNLIDM
Turning to B3, the “units β-galactosidase activity” value is 78 ± 2 Units β-galactosidase activity with Pan1p EH1–2 (96–713), 23 ± 4 Units β-galactosidase activity in test [3], 2 ± 0.4 Units β-galactosidase activity in the test with Pan1p EH2 (544–713) and 18 ± 7 Units β-galactosidase activity in the test with Pan1p EH1 (96–403).

B4: yAP180B 429–568 (domain or fragment, S. cerevisiae, UniProt P53309 429-568, looked up)
chain: GGYTTTENNAIMTGTLDPTKTGSNNPFSLENIAREQQQQNFQNSPNPFTLQQAQTTPILAHSQTGNPFQAQNVVTSPMGTYMTNPVAGQLQYASTGAQQQPQMMQGQQTGYVMVPTAFVPINQQQQQQQHQQENPNLIDI
For B4, the “units β-galactosidase activity” value in the test with Pan1p EH1–2 (96–713) is 362 ± 67 Units β-galactosidase activity; in test [3] it was 342 ± 15 Units β-galactosidase activity; with Pan1p EH2 (544–713) it was 158 ± 15 Units β-galactosidase activity; with Pan1p EH1 (96–403), 70 ± 9 Units β-galactosidase activity.
